Experiment [1] addresses Ab-WbjB (UDP-N-acetylglucosamine 4,6-dehydratase, WbjB) of Acinetobacter baumannii D1279779 (Acinetobacter baumannii strain D1279779). As to the kind of experiment: SEC; Superdex 200 10/300 GL, Buffer A (50 mM HEPES pH 7.5, 200 mM NaCl, 5% v/v glycerol), 0.5 mL/min; hexamer. A general note: Size exclusion chromatography separates by hydrodynamic size, large species first.
For experiment [2] the target is unchanged. As to the kind of experiment: crystal structure; Se-Met Ab-WbjB, space group P212121, six chains in the asymmetric unit, NADP+ bound to each chain, 2.65 Å.
The target is the same in experiment [3]. As to the kind of experiment: SEC; some laboratory samples of Ab-WbjB, presumed by the authors to hold less NADP+; dimer form in solution (example in S1 Fig).

For orientation: stoichiometry N means the number of molecules, sites or subunits per partner or assembly. As to “Ab-WbjB (UDP-N-acetylglucosamine 4,6-dehydratase, WbjB) of Acinetobacter baumannii D1279779 (enzyme)”, the stoichiometry N came out at 6 in experiment [1], 6 in experiment [2] and 2 in experiment [3].

The record behind these values is article PMC5774825.
